From patent US20200115443A1 (TRICAN BIOTECHNOLOGY, published 2020)

Tests used:
VEGF-A [1] = molecular target: T1, VEGF-A (human, UniProt P15692-4 27-191, limits assumed); test: cell-based or functional assay
complement C5 [2] = molecular target: T2, complement C5 (UniProt P01031 19-1676, limits assumed); test: cell-based or functional assay
VEGF-A [3] = molecular target: T1, VEGF-A; test: direct ELISA, VEGF-A coated 100 ng/well, HRP anti-human Fc detection
complement C5 [4] = molecular target: T2, complement C5; test: direct ELISA, C5 coated 100 ng/well, HRP anti-human Fc detection

T1 sequence (P15692 other isoform, or with tags, fused parts or gaps limits assumed): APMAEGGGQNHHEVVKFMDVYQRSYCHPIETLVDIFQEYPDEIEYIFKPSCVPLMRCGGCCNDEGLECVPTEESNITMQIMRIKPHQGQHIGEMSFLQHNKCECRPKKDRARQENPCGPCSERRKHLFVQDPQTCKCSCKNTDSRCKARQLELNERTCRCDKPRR

IC50, inhibition of VEGF-dependent HUVEC proliferation (MTS) (VEGF-A [1]): 0.195 nM
EC50 (VEGF-A [3]): 0.288 nM
EC50 (complement C5 [4]): 3.57 nM
B1: bi-functional fusion protein C5V (other)
chain 1: QVQLVQSGAEVKKPGASVKVSCKASGYIFSNYWIQWVRQAPGQGLEWMGEILPGSGSTEYTENFKDRVTMTRDTSTSTVYMELSSLRSEDTAVYYCARYFFGSSPNWYFDVWGQGTLVTVSSASTKGPSVFPLAPCSRSTSESTAALGCLVKDYFPEPVTVSWNSGALTSGVHTFPAVLQSSGLYSLSSVVTVPSSNFGTQTYTCNVDHKPSNTKVDKTVERKCCVECPPCPAPPVAGPSVFLFPPKPKDTLMISRTPEVTCVVVDVSQEDPEVQFNWYVDGVEVHNAKTKPREEQFNSTYRVVSVLTVLHQDWLNGKEYKCKVSNKGLPSSIEKTISKAKGQPREPQVYTLPPSQEEMTKNQVSLTCLVKGFYPSDIAVEWESNGQPENNYKTTPPVLDSDGSFFLYSRLTVDKSRWQEGNVFSCSVMHEALHNHYTQKSLSLSLGGGGSGGGGSGGGGSSDTGRPFVEMYSEIPEIIHMTEGRELVIPCRVTSPNITVTLKKFPLDTLIPDGKRIIWDSRKGFIISNATYKEIGLLTCEATVNGHLYKTNYLTHRQTNTIIDVVLSPSHGIELSVGEKLVLNCTARTELNVGIDFNWEYPSSKHQHKKLVNRDLKTQSGSEMKKFLSTLTIDGVTRSDQGLYTCAASSGLMTKKNSTFVRVHEK
chain 2: DIQMTQSPSSLSASVGDRVTITCGASENIYGALNWYQQKPGKAPKLLIYGATNLADGVPSRFSGSGSGTDFTLTISSLQPEDFATYYCQNVLNTPLTFGQGTKVEIKRTVAAPSVFIFPPSDEQLKSGTASVVCLLNNFYPREAKVQWKVDNALQSGNSQESVTEQDSKDSTYSLSSTLTLSKADYEKHKVYACEVTHQGLSSPVTKSFNRGEC
IC50, inhibition of the alternative complement pathway (hemolysis of rabbit erythrocytes by normal human serum) (complement C5 [2]): 25.3 nM
